Test results reported in the RNAGym collection of RNA variant scans (doi:10.1038/ncomms11558).

B1: mRNA-splicing (parent)
chain: GAUCCAGAUCUAACUUGGGGUGGCUUUGUCUUCUUCUUUUGCCAAUUCCACUAAUUGUUUGGG

Variants of: B1
Assay: exon inclusion enrichment score (log2 ratio to wild type); higher = more inclusion; FAS exon 6 minigene, HEK293

Row | Variant | exon inclusion enrichment score
1 | G1A | -3.07
2 | G1C | -4.23
3 | G1U | -5.1
4 | A2C | -0.31
5 | A2G | 0.511
6 | A2U | -0.046
7 | U3A | -0.683
8 | U3C | -0.472
9 | U3G | -0.136
10 | C4A | -2.11
11 | C4G | -0.794
12 | C4U | -2.86
13 | C5A | -0.066
14 | C5G | -0.076
15 | C5U | -4.59
16 | A6C | -0.522
17 | A6G | 0.571
18 | A6U | -0.25
19 | G7A | -1.15
20 | G7C | -0.443
21 | G7U | -2.07
22 | A8C | 0.321
23 | A8G | 0.152
24 | A8U | -0.416

Row | Variant | exon inclusion enrichment score
25 | U9A | -0.097
26 | U9C | 1.28
27 | U9G | -0.183
28 | C10A | -0.393
29 | C10G | -0.124
30 | C10U | 0.024
31 | U11A | 0.08
32 | U11C | 0.559
33 | U11G | 0.304
34 | A12C | 0.251
35 | A12G | 0.431
36 | A12U | -0.405
37 | A13C | 1.26
38 | A13G | -0.194
39 | A13U | -0.29
40 | C14A | -0.554
41 | C14G | -0.135
42 | C14U | -0.791
43 | U15A | -0.077
44 | U15C | 0.272
45 | U15G | 0.039
46 | U16A | -0.773
47 | U16C | 0.271
48 | U16G | -0.702

Row | Variant | exon inclusion enrichment score
49 | G17A | -2.56
50 | G17C | -0.067
51 | G17U | -0.191
52 | G18A | -0.636
53 | G18C | 0.301
54 | G18U | 0.258
55 | G19A | 0.892
56 | G19C | 0.027
57 | G19U | 0.032
58 | G20A | 0.232
59 | G20C | 0
60 | G20U | -2.17
61 | U21A | 0.125
62 | U21C | 0.243
63 | U21G | -5.29
64 | G22A | -2.09
65 | G22C | 0.067
66 | G22U | -0.589
67 | G23A | 0.238
68 | G23C | -0.164
69 | G23U | -0.765
70 | C24A | 0.043
71 | C24G | -6.71
72 | C24U | -1.64

Row | Variant | exon inclusion enrichment score
73 | U25A | 0.211
74 | U25C | 0.429
75 | U25G | 0.284
76 | U26A | 0.39
77 | U26C | -0.07
78 | U26G | -0.547
79 | U27A | -0.647
80 | U27C | 0.72
81 | U27G | -0.115
82 | G28A | -1.07
83 | G28C | -1.84
84 | G28U | -1.36
85 | U29A | 0.257
86 | U29C | 0.119
87 | U29G | -3.82
88 | C30A | -0.973
89 | C30G | -0.286
90 | C30U | -2.3
91 | U31A | 0.242
92 | U31C | -0.076
93 | U31G | -1.2
94 | U32A | -0.129
95 | U32C | -0.05
96 | U32G | 0.176

Row | Variant | exon inclusion enrichment score
97 | C33A | -3.75
98 | C33G | -2.4
99 | C33U | -4.54
100 | U34A | -0.179
101 | U34C | -0.17
102 | U34G | 0.283
103 | U35A | -0.045
104 | U35C | 0.127
105 | U35G | 0.167
106 | C36A | -0.688
107 | C36G | -0.112
108 | C36U | -2.31
109 | U37A | 0.26
110 | U37C | 0.225
111 | U37G | 0.33
112 | U38A | -0.025
113 | U38C | 0.106
114 | U38G | 0.274
115 | U39A | 0.361
116 | U39C | 0.236
117 | U39G | 0.267
118 | U40A | -2.39
119 | U40C | 0.287
120 | U40G | 0.275

Row | Variant | exon inclusion enrichment score
121 | G41A | -0.772
122 | G41C | -1.66
123 | G41U | -1.24
124 | C42A | -0.179
125 | C42G | -0.175
126 | C42U | -1.2
127 | C43A | -0.47
128 | C43G | 0.061
129 | C43U | -2.69
130 | A44C | -0.731
131 | A44G | 0.314
132 | A44U | -1.32
133 | A45C | -3.69
134 | A45G | -0.008
135 | A45U | -1.33
136 | U46A | 0.041
137 | U46C | 0.336
138 | U46G | 0.344
139 | U47A | -0.214
140 | U47C | -2.08
141 | U47G | -1.62
142 | C48A | -1.74
143 | C48G | -1.23
144 | C48U | -2.35

Row | Variant | exon inclusion enrichment score
145 | C49A | 1.46
146 | C49G | 0.869
147 | C49U | -0.226
148 | A50C | -3.91
149 | A50G | 0.131
150 | A50U | -1.12
151 | C51A | -1.68
152 | C51G | 0.038
153 | C51U | -1.53
154 | U52A | 0.166
155 | U52C | 0.564
156 | U52G | 0.635
157 | A53C | -0.152
158 | A53G | 0.229
159 | A53U | -0.046
160 | A54C | 0.187
161 | A54G | -0.319
162 | A54U | -0.013
163 | U55A | 0.386
164 | U55C | 0.069
165 | U55G | 0.117
166 | U56A | -0.713
167 | U56C | 0.215
